Target: TNFR2 (human, endogenous in kidney tissue and cultured EC) (human) (UniProt P20333)
Experiment: cell-based or functional assay

Chain of TNFR2 (human, endogenous in kidney tissue and cultured EC) (human) (P20333 23-461): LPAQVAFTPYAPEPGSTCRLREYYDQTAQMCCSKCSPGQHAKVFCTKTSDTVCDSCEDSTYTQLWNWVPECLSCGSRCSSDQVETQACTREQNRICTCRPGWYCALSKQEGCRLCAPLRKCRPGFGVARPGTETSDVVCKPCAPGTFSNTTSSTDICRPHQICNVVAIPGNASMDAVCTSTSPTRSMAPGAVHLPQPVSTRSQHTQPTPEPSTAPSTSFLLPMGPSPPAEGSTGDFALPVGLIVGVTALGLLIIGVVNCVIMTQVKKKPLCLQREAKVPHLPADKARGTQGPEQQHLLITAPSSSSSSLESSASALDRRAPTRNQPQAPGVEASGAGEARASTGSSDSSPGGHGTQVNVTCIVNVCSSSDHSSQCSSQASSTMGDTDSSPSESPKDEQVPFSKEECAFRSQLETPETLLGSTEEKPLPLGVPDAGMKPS

R2-TNF (TNF mutein D143N, A145R) (from UniProt P01375 77-233) (ligand)
Proliferative index (PI), percentage of PCNA-positive tubular cell nuclei, human kidney organ culture: 50%

Source: patent US9081017
